Measurements published in patent publication US20210190796A1 (AB STUDIO, published 2021).
Substitutions are numbered along the chain they refer to.

T1: (EAR)3 peptide
T1 construct: Synthetic substrate peptide coated on the ELISA plate
T1 peptide: EAREAREAR

B1: hu3D6-D H1L1 (antibody, V domains shown)
VH: EVQLVESGGGLVQPGGSLRLSCAASGFTFSNYGMSWVRQAPDKRLEWVASIRSGGGRTYYSDNVKGRFTISRDNAKNTLYLQMNSLRAEDTALYYCVRYDHYSGSSDYWGQGTLVTVSS
VL: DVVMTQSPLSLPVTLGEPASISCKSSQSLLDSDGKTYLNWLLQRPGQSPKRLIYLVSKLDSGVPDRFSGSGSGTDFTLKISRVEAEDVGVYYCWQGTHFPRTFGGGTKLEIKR
notes: It was detected with goat anti-human IgG; also called hu3D6-D HIL1; humanized 3D6-D catabody
B2: bapineuzumab (antibody, V domains shown)
VH: B1 VH with V5L, D42G, R44G, T78S
VL: YVVMTQSPLSLPVTPGEPASISCKSSQSLLDSDGKTYLNWLLQKPGQSPQRLIYLVSKLDSGVPDRFSGSGSGTDFTLKISRVEAEDVGVYYCWQGTHFPRTFGQGTKVEIKR
notes: also called humanized 3D6-Y; hu3D6-Y
B3: hu3D6-D H1L2 (antibody, V domains shown)
VH: B1 VH
VL: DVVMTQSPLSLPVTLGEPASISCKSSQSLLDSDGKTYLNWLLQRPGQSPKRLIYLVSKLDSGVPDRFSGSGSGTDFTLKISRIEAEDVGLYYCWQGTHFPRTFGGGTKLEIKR
notes: It was detected with goat anti-human IgG; also called hu3D6-D HIL2; hu3D6-D HISL2
B4: 3D6-D (antibody, V domains shown)
VH: EVKLVESGGGLVKPGASLKLSCAASGFTFSNYGMSWVRQNSDKRLEWVASIRSGGGRTYYSDNVKGRFTISRENAKNTLYLQMSSLKSEDTALYYCVRYDHYSGSSDYWGQGTTVTVSS
VL: not shown
notes: It was detected with anti-human IgG; also called 3D6-D antibody; 3D6-D catabody
B5: 3D6 (antibody, V domains shown)
VH: B4 VH
VL: not shown
notes: Non-catalytic anti-Aβ antibody, the parental murine antibody of bapineuzumab; An IgG1 isotype control and anti-human IgG detection were used; also called 3D6-Y; wild type 3D6 antibody

Legend:
Aβ (1-42) peptide [1] = biological target: T2, Aβ (1-42) peptide (UniProt P05067 672-713); assay: ELISA, Aβ(1-42) coated
T2 construct: domain: Aβ (1-42) peptide; also called Aβ42
Protocol: (§1) Briefly, an ELISA plate was coated with an Aβ (1-42) peptide at 1 μg/mL in a coating buffer (0.2M sodium carbonate-bicarbonate buffer, pH 9.4), 100 μL/well at 4° C. overnight. The Aβ peptide was removed and the plate was washed three times with 250 μL/well of a washing buffer (PBST). The plate was then blocked with 200 μL/well of a blocking buffer (1% BSA in PBST) for 1 hour at room temperature, and washed two times with 250 μL/well of the washing buffer. To each well of the plate was added 100 μL of the antibody sample (3× serial dilution in the range of 3 ng/mL to 20 μg/mL) and incubated at room temperature for 1 hour. […] The plate was then washed three times with 250 μL/well of the washing buffer. HRP substrate (Amplex Red and H₂O₂) was prepared freshly with a developing buffer (3.6 mM Na₂HPO₄, 1.4 mM NaH₂PO₄, at pH7.2), and 100 μL of the HRP substrate was added to each well and incubated for 1-60 minutes. Signals were subsequently detected using a plate reader (Excitation wavelength=530 nm, Emission wavelength=590 nm, and cutoff wavelength =570 nm).

Aβ (1-42) peptide [2] = biological target: T2, Aβ (1-42) peptide; assay: ELISA, Aβ(1-42) coated at 1 µg/mL, antibody titrated 3 ng/mL to 20 µg/mL
Protocol: as §1

(EAR)3 peptide = biological target: T1, (EAR)3 peptide; assay: ELISA, (EAR)3 peptide coated, antibody at 100 µg/mL

T2 sequence (P05067 672-713 limits assumed): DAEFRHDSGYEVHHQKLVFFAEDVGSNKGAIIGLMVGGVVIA

| Binder | binding result (Aβ (1-42) peptide [1]) | binding result ((EAR)3 peptide) | other results |
| --- | --- | --- | --- |
| B1 | binds |  |  |
| B2 |  |  | binding result (Aβ (1-42) peptide [2]): binds |
| B3 | binds |  |  |
| B4 |  | binds |  |
| B5 |  | binds |  |
